Reference: IntAct's records for PubMed 19411703

B1: Phospholipid-transporting ATPase DNF1 (Saccharomyces cerevisiae), P32660 (parent)
chain: MSGTFHGDGHAPMSPFEDTFQFEDNSSNEDTHIAPTHFDDGATSNKYSRPQVSFNDETPKNKREDAEEFTFNDDTEYDNHSFQPTPKLNNGSGTFDDVELDNDSGEPHTNYDGMKRFRMGTKRNKKGNPIMGRSKTLKWARKNIPNPFEDFTKDDIDPGAINRAQELRTVYYNMPLPKDMIDEEGNPIMQYPRNKIRTTKYTPLTFLPKNILFQFHNFANVYFLVLIILGAFQIFGVTNPGLSAVPLVVIVIITAIKDAIEDSRRTVLDLEVNNTKTHILEGVENENVSTDNISLWRRFKKANSRLLFKFIQYCKEHLTEEGKKKRMQRKRHELRVQKTVGTSGPRSSLDSIDSYRVSADYGRPSLDYDNLEQGAGEANIVDRSLPPRTDCKFAKNYWKGVKVGDIVRIHNNDEIPADIILLSTSDTDGACYVETKNLDGETNLKVRQSLKCTNTIRTSKDIARTKFWIESEGPHSNLYTYQGNMKWRNLADGEIRNEPITINNVLLRGCTLRNTKWAMGVVMFTGGDTKIMLNSGITPTKKSRISRELNFSVVINFVLLFILCFVSGIANGVYYDKKGRSRFSYEFGTIAGSAATNGFVSFWVAVILYQSLVPISLYISVEIIKTAQAAFIYGDVLLYNAKLDYPCTPKSWNISDDLGQVEYIFSDKTGTLTQNVMEFKKCTINGVSYGRAYTEALAGLRKRQGIDVETEGRREKAEIAKDRDTMIDELRALSGNSQFYPEEVTFVSKEFVRDLKGASGEVQQRCCEHFMLALALCHSVLVEANPDNPKKLDLKAQSPDEAALVATARDVGFSFVGKTKKGLIIEMQGIQKEFEILNILEFNSSRKRMSCIVKIPGLNPGDEPRALLICKGADSIIYSRLSRQSGSNSEAILEKTALHLEQYATEGLRTLCIAQRELSWSEYEKWNEKYDIAAASLANREDELEVVADSIERELILLGGTAIEDRLQDGVPDCIELLAEAGIKLWVLTGDKVETAINIGFSCNLLNNEMELLVIKTTGDDVKEFGSEPSEIVDALLSKYLKEYFNLTGSEEEIFEAKKDHEFPKGNYAIVIDGDALKLALYGEDIRRKFLLLCKNCRAVLCCRVSPSQKAAVVKLVKDSLDVMTLAIGDGSNDVAMIQSADVGIGIAGEEGRQAVMCSDYAIGQFRYLARLVLVHGRWSYKRLAEMIPEFFYKNMIFALALFWYGIYNDFDGSYLYEYTYMMFYNLAFTSLPVIFLGILDQDVNDTISLVVPQLYRVGILRKEWNQRKFLWYMLDGLYQSIICFFFPYLVYHKNMIVTSNGLGLDHRYFVGVYVTTIAVISCNTYVLLHQYRWDWFSGLFIALSCLVVFAWTGIWSSAIASREFFKAAARIYGAPSFWAVFFVAVLFCLLPRFTYDSFQKFFYPTDVEIVREMWQHGHFDHYPPGYDPTDPNRPKVTKAGQHGEKIIEGIALSDNLGGSNYSRDSVVTEEIPMTFMHGEDGSPSGYQKQETWMTSPKETQDLLQSPQFQQAQTFGRGPSTNVRSSLDRTREQMIATNQLDNRYSVERARTSLDLPGVTNAASLIGTQQNN
partner: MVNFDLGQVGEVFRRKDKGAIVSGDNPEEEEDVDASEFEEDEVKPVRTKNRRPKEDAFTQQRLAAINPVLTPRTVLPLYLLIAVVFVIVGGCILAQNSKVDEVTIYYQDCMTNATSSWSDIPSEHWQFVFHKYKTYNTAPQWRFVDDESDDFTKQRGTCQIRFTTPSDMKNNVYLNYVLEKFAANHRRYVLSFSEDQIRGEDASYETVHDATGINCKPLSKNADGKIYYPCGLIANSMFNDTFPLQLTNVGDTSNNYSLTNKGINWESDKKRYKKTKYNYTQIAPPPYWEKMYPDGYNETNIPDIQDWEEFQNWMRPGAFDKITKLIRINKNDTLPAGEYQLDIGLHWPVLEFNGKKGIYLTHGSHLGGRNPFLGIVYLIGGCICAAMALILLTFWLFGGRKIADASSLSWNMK
B2: Phospholipid-transporting ATPase DRS2 (Saccharomyces cerevisiae), P39524 (parent)
chain: MNDDRETPPKRKPGEDDTLFDIDFLDDTTSHSGSRSKVTNSHANANYIPPSHVLPEETIDLDADDDNIENDVHENLFMSNNHDDQTSWNANRFDSDAYQPQSLRAVKPPGLFARFGNGLKNAFTFKRKKGPESFEMNHYNAVTNNELDDNYLDSRNKFNIKILFNRYILRKNVGDAEGNGEPRVIHINDSLANSSFGYSDNHISTTKYNFATFLPKFLFQEFSKYANLFFLCTSAIQQVPHVSPTNRYTTIGTLLVVLIVSAMKECIEDIKRANSDKELNNSTAEIFSEAHDDFVEKRWIDIRVGDIIRVKSEEPIPADTIILSSSEPEGLCYIETANLDGETNLKIKQSRVETAKFIDVKTLKNMNGKVVSEQPNSSLYTYEGTMTLNDRQIPLSPDQMILRGATLRNTAWIFGLVIFTGHETKLLRNATATPIKRTAVEKIINRQIIALFTVLIVLILISSIGNVIMSTADAKHLSYLYLEGTNKAGLFFKDFLTFWILFSNLVPISLFVTVELIKYYQAFMIGSDLDLYYEKTDTPTVVRTSSLVEELGQIEYIFSDKTGTLTRNIMEFKSCSIAGHCYIDKIPEDKTATVEDGIEVGYRKFDDLKKKLNDPSDEDSPIINDFLTLLATCHTVIPEFQSDGSIKYQAASPDEGALVQGGADLGYKFIIRKPNSVTVLLEETGEEKEYQLLNICEFNSTRKRMSAIFRFPDGSIKLFCKGADTVILERLDDEANQYVEATMRHLEDYASEGLRTLCLAMRDISEGEYEEWNSIYNEAATTLDNRAEKLDEAANLIEKNLILIGATAIEDKLQDGVPETIHTLQEAGIKIWVLTGDRQETAINIGMSCRLLSEDMNLLIINEETRDDTERNLLEKINALNEHQLSTHDMNTLALVIDGKSLGFALEPELEDYLLTVAKLCKAVICCRVSPLQKALVVKMVKRKSSSLLLAIGDGANDVSMIQAAHVGVGISGMEGMQAARSADIAVGQFKFLKKLLLVHGSWSYQRISVAILYSFYKNTALYMTQFWYVFANAFSGQSIMESWTMSFYNLFFTVWPPFVIGVFDQFVSSRLLERYPQLYKLGQKGQFFSVYIFWGWIINGFFHSAIVFIGTILIYRYGFALNMHGELADHWSWGVTVYTTSVIIVLGKAALVTNQWTKFTLIAIPGSLLFWLIFFPIYASIFPHANISREYYGVVKHTYGSGVFWLTLIVLPIFALVRDFLWKYYKRMYEPETYHVIQEMQKYNISDSRPHVQQFQNAIRKVRQVQRMKKQRGFAFSQAEEGGQEKIVRMYDTTQKRGKYGELQDASANPFNDNNGLGSNDFESAEPFIENPFADGNQNSNRFSSSRDDISFDI
partner: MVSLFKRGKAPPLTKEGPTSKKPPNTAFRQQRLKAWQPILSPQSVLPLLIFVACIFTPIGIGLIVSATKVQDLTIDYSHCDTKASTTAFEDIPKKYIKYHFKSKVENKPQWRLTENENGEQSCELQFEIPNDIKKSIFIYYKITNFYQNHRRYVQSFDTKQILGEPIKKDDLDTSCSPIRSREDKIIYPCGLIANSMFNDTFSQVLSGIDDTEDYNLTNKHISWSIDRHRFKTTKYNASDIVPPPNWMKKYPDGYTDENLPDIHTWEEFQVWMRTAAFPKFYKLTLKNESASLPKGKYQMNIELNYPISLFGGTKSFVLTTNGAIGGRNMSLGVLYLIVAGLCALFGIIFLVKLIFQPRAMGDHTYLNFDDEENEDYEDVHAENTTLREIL

Variants of: B1
Conditions: with lem3_yeast LEM3, P42838

| Variant | effect of a mutation on the interaction |
| --- | --- |
| D667N | disrupting interaction strength |
| D667E | disrupting interaction strength |

Variants of: B2
Conditions: with cdc50_yeast CDC50, P25656

| Variant | effect of a mutation on the interaction |
| --- | --- |
| G341L | decreasing interaction strength |
| E342Q | with no effect |
| D560E | decreasing interaction strength |

Variants of: B2
Conditions: with cdc50_yeast CDC50, P25656
Remark: another data set of the same source

| Variant | effect of a mutation on the interaction |
| --- | --- |
| D560N | decreasing interaction strength |
